This passage reports binding result and Kd results from publication PMC5899157, “Directed evolution of broadly crossreactive chemokine-blocking antibodies efficacious in arthritis” (Nature Communications, 2018).

The target of test [1] is T1, mCXCL2 displayed on the surface of yeast as N-terminal fusion of Aga2p (mouse, UniProt P10889).
T1 construct: murine CXCL2, active processed form; Construct CXCL-(G3)-c-myc-Aga2p; also called ^NCXCL-Aga2p^C; not shown: c-myc, C-terminal, kept; Aga2p, C-terminal, kept
In words: flow cytometry on cells; CXC chemokine displayed on yeast (CXCL-Aga2p) titrated with soluble SA-antibody fusions bearing His6, 10 pM to 20 μM, overnight at 4 °C, PBSA washes, anti-His6 detection, binding/display MFI. As to conditions: one partner purified. In general terms: In flow cytometry, cells or beads pass a laser one at a time.

For test [2], the target named is T2, mCXCL1 displayed on the surface of yeast as N-terminal fusion of Aga2p (mouse, UniProt P12850).
T2 construct: murine CXCL1, active processed form; Construct CXCL-(G3)-c-myc-Aga2p; also called ^NCXCL-Aga2p^C; not shown: c-myc, C-terminal, kept; Aga2p, C-terminal, kept
The description is as above. As to conditions: one partner purified.

The target of test [3] is T3, wild-type hCXCL1 displayed on the surface of yeast as N-terminal fusion of Aga2p (human, UniProt P09341).
T3 construct: human CXCL1, active processed form; Construct CXCL-(G3)-c-myc-Aga2p; also called hCXCL1^WT; ^NhCXCL1^WT-Aga2p^C; not shown: c-myc, C-terminal, kept; Aga2p, C-terminal, kept
The test is described as above. As to conditions: one partner purified.

The target of test [4] is T4, mCXCL5 displayed on the surface of yeast as N-terminal fusion of Aga2p (mouse, UniProt P50228).
T4 construct: murine CXCL5, active processed form; Construct CXCL-(G3)-c-myc-Aga2p; also called ^NCXCL-Aga2p^C; not shown: c-myc, C-terminal, kept; Aga2p, C-terminal, kept
The test is described as above. As to conditions: one partner purified.

In test [5] the target is T5, mCXCL3 displayed on the surface of yeast as N-terminal fusion of Aga2p (mouse, UniProt Q6W5C0).
T5 construct: murine CXCL3, active processed form; Construct CXCL-(G3)-c-myc-Aga2p; also called ^NCXCL-Aga2p^C; not shown: c-myc, C-terminal, kept; Aga2p, C-terminal, kept
Described as above. As to conditions: one partner purified.

For test [6], the target named is T6, biotinylated hCXCL8 (^NCXCL-G2-AviTag^C) (human, UniProt P10145, biotin on the defined lysine of the AviTag (BirA)).
T6 construct: human CXCL8, active form; Which processed form of CXCL8 (72 or 77 residues) was made is only in Supplementary Data 1; not shown: AviTag, C-terminal, kept; Fc (murine IgG2 CH2 and CH3), N-terminal, cleaved; His6, N-terminal, cleaved
In words: flow cytometry on cells; competition: biotinylated chemokine at its EC50 with varying antagonist (0.3 nM to 3 μM; 0.003 to 30 μM for SA157*) on HEK293 cells expressing CXCR1 or CXCR2; the antagonist and the chemokine. To be noted: both partners purified.

Test [7] addresses T7, hCXCL1 fused to the N-terminus of mouse serum albumin (human, UniProt P09341).
T7 construct: human CXCL1, active protein form; CXCL-SA fusions eluted as dimers to tetramers on SEC; also called ^NCXCL-SA^C; source: HEK293 (suspension-adapted), transient transfection, purified (Ni Sepharose excel, SEC); not shown: mouse serum albumin, C-terminal, kept; His6, C-terminal, kept
The experiment in a line: flow cytometry on cells; scFv displayed on yeast (Aga2p fusion) titrated with soluble CXCL-SA fusions bearing His6, 10 pM to 2 μM, overnight at 4 °C, PBSA washes, anti-His6 detection, binding/display MFI. To be noted: one partner purified.

The target of test [8] is T8, mCXCL1 fused to the N-terminus of mouse serum albumin (mouse, UniProt P12850).
T8 construct: murine CXCL1, active protein form; also called ^NCXCL-SA^C; source: HEK293 (suspension-adapted), transient transfection, purified (Ni Sepharose excel, SEC); not shown: mouse serum albumin, C-terminal, kept; His6, C-terminal, kept
The test is described as above. As to conditions: one partner purified.

Test [9] deals with T9, CCL20 (Homo sapiens (assumed; species not …, UniProt P78556).
T9 construct: CC chemokine CCL20; Detected with streptavidin or anti-His6
The experiment in a line: flow cytometry on cells; polyreactivity test: scFv displayed on yeast, single concentration (2 μM) of soluble protein, detection with streptavidin or anti-His6. As to conditions: one partner purified.

Test [10] concerns the target T10, CCL28 (human, UniProt Q9NRJ3).
T10 construct: CC chemokine CCL28; Detected with streptavidin or anti-His6
Described as above. To be noted: one partner purified.

For test [11], the target named is T11, CCL22 (human, UniProt O00626).
T11 construct: CC chemokine CCL22; Detected with streptavidin or anti-His6
The description is as above. As to conditions: one partner purified.

The target in test [12] is T12, chemotactic factor C5a (Homo sapiens (assumed; species not …, UniProt P01031).
T12 construct: C5a, the chemotactic fragment cut from complement C5; Detected with streptavidin or anti-His6
Described as above. As to conditions: one partner purified.

For orientation: Kd means the concentration at which binding is half-saturated. The low end stands for tighter binding, the high end for weaker binding.

B1: SA138, mouse serum albumin fused to the CK138 single-chain variable antibody fragment (scFv, V domains shown)
VH: EVQLVESDGGLVQPGGSLRLSCAASGFNLSYYGMHWVRQAPGKGLEWVAYIASYPGYTSYADSVKGRFTISADTSKNTAYLQMNSLRAEDTAVYYCARSGYSYSPYYSWFSAGMNYWGQGALVTVSS
VL: AIQMTRSPSSLSASVGDRVTITCRASQYHDGSAAWYQQKPGKAPKLLIYGASYLYSGVPSRFSGSRSGTDFTLTISSLQPEDFATYYCQQSSYSLITFGQGTKVEIK
notes: VL of CK138, as in m2; linker between VL and VH; the scFv was amplified from the pCT-CON vector; VH of CK138, as in m2; Construct SA-(G4S)3-scFv-G4S-His6; also called ^NSA-scFv^C; source: HEK293 (suspension-adapted), transient transfection, purified (Ni Sepharose excel, SEC); not shown: mouse serum albumin, N-terminal, kept; His6, C-terminal, kept
As to B1, the binding result in test [1], in test [2], in [4], in test [5] and in test [6] was “binds” in each case. The Kd in test [3] was about 100 nM.

B2: CK129 single-chain variable antibody fragment, displayed on yeast (scFv, V domains shown)
VH: EVQLVESGGGLVQPGGSLRLSCAASGFNISSYGSMHWVRQAPGKGLEWVASIYPYSSSTYYADSVKGRFTISADTSKNTAYLQMNSLRAEDTAVYYCARGYGPWYAYSYFALDYWGQGTLVTVSS
VL: DIQMTQSPSPLSASVGDRVTITCRASQYGGYVAWYQQKPGKAPKLLIYGASLLYSGVPSRFSGGRSGTDFTLTISSLQPEDFATYYCQRGHALITFGQGTKVEIE
notes: VL of CK129 (CK4 lineage, synthetic library G); flexible linker between VL and VH; VH of CK129; Construct Aga2p-HA-(G4S)3-VL-linker-VH-c-myc; VL-VH orientation; not shown: Aga2p, N-terminal, kept; HA, N-terminal, kept; c-myc, C-terminal, kept
Regarding B2, the Kd came to 0.79 nM in test [7] and 0.93 nM in test [8].

B3: SA129, mouse serum albumin fused to the CK129 single-chain variable antibody fragment (scFv, V domains shown)
VH: EVQLVESGGGLVQPGGSLRLSCAASGFNISSYGSMHWVRQAPGKGLEWVASIYPYSSSTYYADSVKGRFTISADTSKNTAYLQMNSLRAEDTAVYYCARGYGPWYAYSYFALDYWGQGTLVTVSS
VL: DIQMTQSPSPLSASVGDRVTITCRASQYGGYVAWYQQKPGKAPKLLIYGASLLYSGVPSRFSGGRSGTDFTLTISSLQPEDFATYYCQRGHALITFGQGTKVEIE
notes: VL of CK129, as in m1; linker between VL and VH; the scFv was amplified from the pCT-CON vector; VH of CK129, as in m1; Construct SA-(G4S)3-scFv-G4S-His6; also called ^NSA-scFv^C; source: HEK293 (suspension-adapted), transient transfection, purified (Ni Sepharose excel, SEC); not shown: mouse serum albumin, N-terminal, kept; His6, C-terminal, kept
As to B3, the Kd in [3] is about 2.5 nM. For the same molecule, in test [5], the binding result is on record as “no binding (tested: up to 20 μM (methods))”.

B4: SA157*, separate mouse serum albumin fusions of the VL and VH domains of CK157 mixed in equimolar amounts (other)
VH: EVQLVESGGGLVQPGGSLRLSCAASGSNPYYYGGTHWVRQAPGEELEWVASIGSYPGYTDYADSVKGRFTISADTSKNTAYLQMNSLRAEDTAVYYCARHYYWYDATDYWGQGTLVTVSS
VL: DIQMTQSPSSLSASVGDRVTITCRASQSYGGVAWYQQKPGKAPKLLIYSASYLYSGVPSRFSGSRSGTDFTLTISSLQPEDFATYYCQQPSHLITFGQGTEVEIK
notes: VL of CK157, as in m3; VH of CK157, as in m3; Constructs SA-(G4S)3-VL-G4S-His6 and SA-(G4S)3-VH-G4S-His6; not a single chain with a linker; also called ^NSA-VL^C and ^NSA-VH^C; not shown: mouse serum albumin, N-terminal, kept; His6, C-terminal, kept
As to B4, the Kd in test [3] is about 1500 nM. For the same molecule, the binding result in [6] was “binds”.

B5: CK157 single-chain variable antibody fragment, displayed on yeast (scFv, V domains shown)
VH: EVQLVESGGGLVQPGGSLRLSCAASGSNPYYYGGTHWVRQAPGEELEWVASIGSYPGYTDYADSVKGRFTISADTSKNTAYLQMNSLRAEDTAVYYCARHYYWYDATDYWGQGTLVTVSS
VL: DIQMTQSPSSLSASVGDRVTITCRASQSYGGVAWYQQKPGKAPKLLIYSASYLYSGVPSRFSGSRSGTDFTLTISSLQPEDFATYYCQQPSHLITFGQGTEVEIK
notes: VL of CK157 (CK2 lineage, made by combinatorial site-directed mutagenesis); flexible linker between VL and VH; VH of CK157; Construct Aga2p-HA-(G4S)3-VL-linker-VH-c-myc; VL-VH orientation; not shown: Aga2p, N-terminal, kept; HA, N-terminal, kept; c-myc, C-terminal, kept
As to B5, the binding result in test [9], in test [10], in test [11] and in [12] was “binds” throughout.
